Among the data in article PMC3482686 are stoichiometry N values, retold here.

The target of this test is AEBP2 (shorter isoform) (human). Kind of test: negative-stain EM 3D reconstruction with localisation of MBP and GFP tags; purified PRC2-AEBP2 complex mildly cross-linked with 0.015% glutaraldehyde, stained with 2% uranyl formate; random conical tilt and projection matching, 21 Å; tags located in reference-free 2D class averages.

With “EED (from UniProt O75530 1-441) (natural protein)”, the stoichiometry N – broadly, a count of units in the complex or per binding partner – stood at 1. The result for “Ezh2 (from UniProt Q15910-2 1-751) (enzyme)” reads 1.
